Experimental data: article PMC9984488

What was measured:
14-3-3τ = 14-3-3τ (UniProt P27348); experiment: GST pull-down from co-transfected cells; conditions: reference: GST-HIP-55 wild type; sites S269,T291
MAP4K1 = MAP4K1 (UniProt Q92918); experiment: GST pull-down from transfected cells; conditions: reference: HIP-55 wild type; sites S269,T291

## HIP-55 (from UniProt Q9UJU6) GST-HIP-55 S269A/T291A (HIP-55AA)
14-3-3τ
  binding against the reference: lost

## HIP-55 (from UniProt Q9UJU6) HIP-55 S269A/T291A (HIP-55AA)
MAP4K1
  binding against the reference: weaker
